# Experimental data: IntAct's records for PubMed 17170699
# B1: Protein disulfide-isomerase A3 (Homo sapiens), P30101 (parent)
# chain: MRLRRLALFPGVALLLAAARLAAASDVLELTDDNFESRISDTGSAGLMLVEFFAPWCGHCKRLAPEYEAAATRLKGIVPLAKVDCTANTNTCNKYGVSGYPTLKIFRDGEEAGAYDGPRTADGIVSHLKKQAGPASVPLRTEEEFKKFISDKDASIVGFFDDSFSEAHSEFLKAASNLRDNYRFAHTNVESLVNEYDDNGEGIILFRPSHLTNKFEDKTVAYTEQKMTSGKIKKFIQENIFGICPHMTEDNKDLIQGKDLLIAYYDVDYEKNAKGSNYWRNRVMMVAKKFLDAGHKLNFAVASRKTFSHELSDFGLESTAGEIPVVAIRTAKGEKFVMQEEFSRDGKALERFLQDYFDGNLKRYLKSEPIPESNDGPVKVVVAENFDEIVNNENKDVLIEFYAPWCGHCKNLEPKYKELGEKLSKDPNIVIAKMDATANDVPSPYEVRGFPTIYFSPANKKLNPKKYEGGRELSDFISYLQREATNPPVIQEEKPKKKKKAQEDL
# partner: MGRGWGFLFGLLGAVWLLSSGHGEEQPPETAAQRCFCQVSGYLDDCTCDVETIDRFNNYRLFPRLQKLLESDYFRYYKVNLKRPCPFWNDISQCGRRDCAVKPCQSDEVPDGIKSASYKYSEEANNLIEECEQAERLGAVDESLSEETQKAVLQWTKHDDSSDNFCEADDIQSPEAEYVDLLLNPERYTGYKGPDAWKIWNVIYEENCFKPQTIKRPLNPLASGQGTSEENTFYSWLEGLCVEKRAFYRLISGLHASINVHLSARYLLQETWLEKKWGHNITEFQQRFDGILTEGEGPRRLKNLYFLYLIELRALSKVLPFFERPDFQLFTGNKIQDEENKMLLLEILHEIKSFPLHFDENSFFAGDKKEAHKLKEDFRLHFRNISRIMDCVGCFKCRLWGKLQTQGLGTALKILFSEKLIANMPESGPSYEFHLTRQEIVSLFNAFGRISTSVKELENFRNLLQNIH
# Variants of: B1
# Conditions: with ero1a_human ERO1A
row,Variant,effect of a mutation on the interaction
1,MRLRRLALFPGVALLLAAARLAAASDVLELTDDNFESRISDTGSAGLMLVEFFAPWCGHCKRLAPEYEAAATRLKGIVPLAKVDCTANTNTCNKYGVSGYPTLKIFRDGEEAGAYDGPRTADGIVSHLKKQAGPASVPLRTEEEFKKFISDKDASIVGFFDDSFSEAHSEFLKAASNLRDNYRFAHTNVESLVNEYDDNGEGIILFRPSHLTNKFEDKTVAYTEQKMTSGKIKKFIQENIFGICPHMTEDNKDLIQGKDLLIAYYDVDYEKNAKGSNYWRNRVMMVAKKFLDAGHKLNFAVASRKTFSHELSDFGLESTAGEIPVVAIRTAKGEKFVMQEEFSRDGKALERFLQDYFDGNLKRYLKSEPIPESNDGPVKVVVAENFDEIVNNENKDVLIEFYAPWCGHAKNLEPKYKELGEKLSKDPNIVIAKMDATANDVPSPYEVRGFPTIYFSPANKKLNPKKYEGGRELSDFISYLQREATNPPVIQEEKPKKKKKAQEDL [C409A],decreasing interaction
